According to paper PMC9181698 (International Journal of Molecular Sciences, 2022):

B1: LW25.5, individual helix 1 of LCB1 (peptide)
chain: DKEWILQKIYEIMRLLDEL
HELM: PEPTIDE1{[O=C1N[C@H]2[C@H](CS[C@H]2CCCCC(=O)[*:2])N1].[O=C(COCCOCCN[*:1])[*:2]].D.K.E.W.I.L.Q.K.I.Y.E.I.M.R.L.L.D.E.L.[am]}$$$$V2.0
SMILES: CC[C@H](C)[C@H](NC(=O)[C@H](Cc1c[nH]c2ccccc12)NC(=O)[C@H](CCC(=O)O)NC(=O)[C@H](CCCCN)NC(=O)[C@H](CC(=O)O)NC(=O)COCCOCCNC(=O)CCCC[C@@H]1SC[C@@H]2NC(=O)N[C@@H]21)C(=O)N[C@@H](CC(C)C)C(=O)N[C@@H](CCC(N)=O)C(=O)N[C@@H](CCCCN)C(=O)N[C@H](C(=O)N[C@@H](Cc1ccc(O)cc1)C(=O)N[C@@H](CCC(=O)O)C(=O)N[C@H](C(=O)N[C@@H](CCSC)C(=O)N[C@@H](CCCNC(=N)N)C(=O)N[C@@H](CC(C)C)C(=O)N[C@@H](CC(C)C)C(=O)N[C@@H](CC(=O)O)C(=O)N[C@@H](CCC(=O)O)C(=O)N[C@@H](CC(C)C)C(N)=O)[C@@H](C)CC)[C@@H](C)CC
notes: source: synthetic peptide (Fmoc/tBu solid-phase synthesis, preparative HPLC)
B2: LW25.6, individual helix 2 of LCB1 (peptide)
chain: GHAEASMRVSDLIYEFMKKG
HELM: PEPTIDE1{[O=C1N[C@H]2[C@H](CS[C@H]2CCCCC(=O)[*:2])N1].[O=C(COCCOCCN[*:1])[*:2]].G.H.A.E.A.S.M.R.V.S.D.L.I.Y.E.F.M.K.K.G.[am]}$$$$V2.0
SMILES: CC[C@H](C)[C@H](NC(=O)[C@H](CC(C)C)NC(=O)[C@H](CC(=O)O)NC(=O)[C@H](CO)NC(=O)[C@@H](NC(=O)[C@H](CCCNC(=N)N)NC(=O)[C@H](CCSC)NC(=O)[C@H](CO)NC(=O)[C@H](C)NC(=O)[C@H](CCC(=O)O)NC(=O)[C@H](C)NC(=O)[C@H](Cc1c[nH]cn1)NC(=O)CNC(=O)COCCOCCNC(=O)CCCC[C@@H]1SC[C@@H]2NC(=O)N[C@@H]21)C(C)C)C(=O)N[C@@H](Cc1ccc(O)cc1)C(=O)N[C@@H](CCC(=O)O)C(=O)N[C@@H](Cc1ccccc1)C(=O)N[C@@H](CCSC)C(=O)N[C@@H](CCCCN)C(=O)N[C@@H](CCCCN)C(=O)NCC(N)=O
notes: as for B1

Molecular target: T1, SARS-CoV-2 spike protein RBD-Fc fusion protein, wild type (SARS-CoV-2, UniProt P0DTC2)
T1 construct: source: bought: Sino Biological
Experiment: ELISA
Details: both partners purified

Row | Binder | IC50 [nM]
1 | B1 | > 200
2 | B2 | > 200
